Data: publication PMC11994318, “In vitro characterization of the yeast DEAH/RHA RNA helicase Dhr1” (The Journal of Biological Chemistry, 2025)
Ends that are not written are not given here. * marks the point of attachment. 6FAM = O=C1OC2(c3ccc(O)cc3Oc3cc(O)ccc32)c2cc(C(=O)*)ccc21

T1: ΔN-Dhr1-WT (Δ1 to 375-Dhr1) (Saccharomyces cerevisiae, UniProt Q04217 376-1267)
T1 construct: Dhr1 (Ecm16), DEAH/RHA RNA helicase of Saccharomyces cerevisiae, residues 1-375 deleted; Cloned into pET21a(+) with a C-terminal Hisx6 tag; also called ΔN-WT; dhr1-Δ1–375 (ΔN); source: E. coli Codon+ BL21 (DE3) RIL (AJE854), purified (HisTrap FF, HiTrap Capto SP)
T1 sequence (looked up): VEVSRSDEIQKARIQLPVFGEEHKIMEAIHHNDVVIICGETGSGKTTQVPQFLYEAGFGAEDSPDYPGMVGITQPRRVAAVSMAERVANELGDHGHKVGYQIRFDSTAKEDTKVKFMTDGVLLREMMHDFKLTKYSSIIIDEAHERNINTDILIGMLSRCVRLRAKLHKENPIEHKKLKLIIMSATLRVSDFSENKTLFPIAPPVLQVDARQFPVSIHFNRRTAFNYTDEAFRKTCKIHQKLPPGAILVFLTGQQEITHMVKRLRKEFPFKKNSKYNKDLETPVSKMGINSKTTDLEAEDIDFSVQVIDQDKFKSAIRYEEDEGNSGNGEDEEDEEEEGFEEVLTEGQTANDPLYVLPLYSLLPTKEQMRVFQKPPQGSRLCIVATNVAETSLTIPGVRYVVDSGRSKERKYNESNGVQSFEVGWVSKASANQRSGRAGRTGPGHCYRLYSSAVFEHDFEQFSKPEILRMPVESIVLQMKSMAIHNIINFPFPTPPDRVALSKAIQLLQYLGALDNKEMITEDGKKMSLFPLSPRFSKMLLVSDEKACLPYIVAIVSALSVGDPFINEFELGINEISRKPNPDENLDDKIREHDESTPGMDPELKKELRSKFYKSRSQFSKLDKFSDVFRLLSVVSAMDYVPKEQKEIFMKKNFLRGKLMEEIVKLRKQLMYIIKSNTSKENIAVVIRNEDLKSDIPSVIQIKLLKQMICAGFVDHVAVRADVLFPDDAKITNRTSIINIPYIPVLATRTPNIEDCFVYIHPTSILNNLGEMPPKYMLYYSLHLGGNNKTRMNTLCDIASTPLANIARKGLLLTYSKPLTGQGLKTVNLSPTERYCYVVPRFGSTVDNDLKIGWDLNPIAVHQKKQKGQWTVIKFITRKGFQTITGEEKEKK

T2: ΔN-Dhr1-ΔSKTTD (Saccharomyces cerevisiae, UniProt Q04217 376-1267, ΔSKTTD (aa 666–670))
T2 construct: Dhr1 (Ecm16) of Saccharomyces cerevisiae, residues 1-375 deleted and the five residues SKTTD (aa 666-670) of loop 1 deleted; also called ΔN-ΔSKTTD; ΔNΔSKTTD; source: E. coli Codon+ BL21 (DE3) RIL (AJE854), purified (HisTrap FF, HiTrap Capto SP)
T2 sequence (looked up): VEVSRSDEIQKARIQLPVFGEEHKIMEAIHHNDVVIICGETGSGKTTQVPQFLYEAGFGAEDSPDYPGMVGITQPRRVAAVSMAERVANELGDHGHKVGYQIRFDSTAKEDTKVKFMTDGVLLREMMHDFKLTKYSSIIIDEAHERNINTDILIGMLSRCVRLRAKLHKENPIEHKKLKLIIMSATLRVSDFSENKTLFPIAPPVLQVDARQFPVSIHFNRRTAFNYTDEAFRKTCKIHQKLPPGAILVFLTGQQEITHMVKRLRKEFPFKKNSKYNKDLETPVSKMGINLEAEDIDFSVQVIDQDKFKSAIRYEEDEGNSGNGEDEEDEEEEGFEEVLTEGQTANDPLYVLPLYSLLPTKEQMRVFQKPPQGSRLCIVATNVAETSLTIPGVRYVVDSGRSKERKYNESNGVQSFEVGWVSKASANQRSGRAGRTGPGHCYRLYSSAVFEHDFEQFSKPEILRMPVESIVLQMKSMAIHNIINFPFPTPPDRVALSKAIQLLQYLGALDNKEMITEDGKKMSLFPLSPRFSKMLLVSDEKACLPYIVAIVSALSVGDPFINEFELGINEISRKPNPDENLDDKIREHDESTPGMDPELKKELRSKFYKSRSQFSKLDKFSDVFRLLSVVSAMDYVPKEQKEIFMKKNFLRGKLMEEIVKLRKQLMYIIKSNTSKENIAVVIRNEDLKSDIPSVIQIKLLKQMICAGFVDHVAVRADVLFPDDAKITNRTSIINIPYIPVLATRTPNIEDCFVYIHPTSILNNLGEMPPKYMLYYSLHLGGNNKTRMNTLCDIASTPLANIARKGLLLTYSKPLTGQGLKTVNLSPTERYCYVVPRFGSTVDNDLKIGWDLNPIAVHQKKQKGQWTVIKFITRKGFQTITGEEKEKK

T3: ΔN-Dhr1-YCK (RecA2 surface mutant) (Saccharomyces cerevisiae, UniProt Q04217 376-1267, H593Y | R596C | E831K)
T3 construct: Dhr1 (Ecm16) of Saccharomyces cerevisiae, residues 1-375 deleted, with three mutations on the RecA2 surface; also called ΔN-Dhr1-RecA2; ΔN-Dhr1-RecA2-mutants; source: E. coli Codon+ BL21 (DE3) RIL (AJE854), purified (HisTrap FF, HiTrap Capto SP)
T3 sequence (looked up): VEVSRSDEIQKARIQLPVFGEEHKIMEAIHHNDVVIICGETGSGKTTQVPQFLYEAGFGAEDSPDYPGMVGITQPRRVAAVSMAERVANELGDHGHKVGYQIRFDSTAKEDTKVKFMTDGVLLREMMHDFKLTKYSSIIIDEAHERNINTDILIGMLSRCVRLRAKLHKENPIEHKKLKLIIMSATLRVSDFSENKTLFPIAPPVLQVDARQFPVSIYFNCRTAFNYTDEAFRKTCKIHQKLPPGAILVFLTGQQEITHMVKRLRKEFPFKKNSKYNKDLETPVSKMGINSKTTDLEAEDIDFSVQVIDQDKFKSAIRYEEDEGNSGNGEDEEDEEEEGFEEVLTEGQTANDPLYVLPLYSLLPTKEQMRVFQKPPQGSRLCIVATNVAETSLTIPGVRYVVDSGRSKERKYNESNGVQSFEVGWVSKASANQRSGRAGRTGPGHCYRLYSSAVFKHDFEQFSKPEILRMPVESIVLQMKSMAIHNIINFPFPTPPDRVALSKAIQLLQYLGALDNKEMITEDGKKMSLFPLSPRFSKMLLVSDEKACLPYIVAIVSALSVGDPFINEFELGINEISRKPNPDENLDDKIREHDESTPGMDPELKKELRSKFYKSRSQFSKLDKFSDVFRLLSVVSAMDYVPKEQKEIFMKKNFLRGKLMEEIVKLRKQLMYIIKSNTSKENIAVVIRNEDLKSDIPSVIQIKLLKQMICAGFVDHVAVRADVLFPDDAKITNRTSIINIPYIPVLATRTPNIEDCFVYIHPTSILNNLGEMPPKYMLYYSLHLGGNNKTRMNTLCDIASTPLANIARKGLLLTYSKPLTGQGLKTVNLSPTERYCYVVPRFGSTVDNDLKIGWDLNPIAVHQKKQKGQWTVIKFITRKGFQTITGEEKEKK

T4: ΔN-Dhr1-ΔSKTTD (Saccharomyces cerevisiae, UniProt Q04217 376-665+671-1267, internal_change)
T4 sequence: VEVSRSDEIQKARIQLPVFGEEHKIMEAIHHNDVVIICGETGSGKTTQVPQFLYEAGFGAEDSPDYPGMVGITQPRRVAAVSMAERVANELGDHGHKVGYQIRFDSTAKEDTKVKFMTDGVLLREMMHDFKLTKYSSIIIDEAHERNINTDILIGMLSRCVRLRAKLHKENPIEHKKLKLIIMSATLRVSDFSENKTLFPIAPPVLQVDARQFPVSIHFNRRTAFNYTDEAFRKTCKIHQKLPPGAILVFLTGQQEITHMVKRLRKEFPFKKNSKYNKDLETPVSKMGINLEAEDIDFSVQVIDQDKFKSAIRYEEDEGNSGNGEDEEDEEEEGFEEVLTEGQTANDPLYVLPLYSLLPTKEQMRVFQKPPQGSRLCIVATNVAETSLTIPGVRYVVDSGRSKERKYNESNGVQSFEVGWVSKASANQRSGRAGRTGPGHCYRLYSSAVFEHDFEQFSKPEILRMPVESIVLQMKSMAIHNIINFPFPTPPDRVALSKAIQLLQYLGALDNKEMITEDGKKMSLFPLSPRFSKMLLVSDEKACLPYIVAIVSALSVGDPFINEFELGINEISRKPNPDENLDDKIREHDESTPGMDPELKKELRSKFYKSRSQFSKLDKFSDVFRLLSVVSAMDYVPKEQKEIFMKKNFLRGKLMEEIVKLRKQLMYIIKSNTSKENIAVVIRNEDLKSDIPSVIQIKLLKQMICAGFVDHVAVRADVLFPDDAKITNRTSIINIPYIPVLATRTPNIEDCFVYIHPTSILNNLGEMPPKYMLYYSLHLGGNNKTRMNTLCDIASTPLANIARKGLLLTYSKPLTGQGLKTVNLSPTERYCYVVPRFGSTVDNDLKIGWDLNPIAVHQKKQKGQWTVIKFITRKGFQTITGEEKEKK

T5: ΔN-Dhr1-WT (Saccharomyces cerevisiae, UniProt Q04217 376-1267)
T5 sequence: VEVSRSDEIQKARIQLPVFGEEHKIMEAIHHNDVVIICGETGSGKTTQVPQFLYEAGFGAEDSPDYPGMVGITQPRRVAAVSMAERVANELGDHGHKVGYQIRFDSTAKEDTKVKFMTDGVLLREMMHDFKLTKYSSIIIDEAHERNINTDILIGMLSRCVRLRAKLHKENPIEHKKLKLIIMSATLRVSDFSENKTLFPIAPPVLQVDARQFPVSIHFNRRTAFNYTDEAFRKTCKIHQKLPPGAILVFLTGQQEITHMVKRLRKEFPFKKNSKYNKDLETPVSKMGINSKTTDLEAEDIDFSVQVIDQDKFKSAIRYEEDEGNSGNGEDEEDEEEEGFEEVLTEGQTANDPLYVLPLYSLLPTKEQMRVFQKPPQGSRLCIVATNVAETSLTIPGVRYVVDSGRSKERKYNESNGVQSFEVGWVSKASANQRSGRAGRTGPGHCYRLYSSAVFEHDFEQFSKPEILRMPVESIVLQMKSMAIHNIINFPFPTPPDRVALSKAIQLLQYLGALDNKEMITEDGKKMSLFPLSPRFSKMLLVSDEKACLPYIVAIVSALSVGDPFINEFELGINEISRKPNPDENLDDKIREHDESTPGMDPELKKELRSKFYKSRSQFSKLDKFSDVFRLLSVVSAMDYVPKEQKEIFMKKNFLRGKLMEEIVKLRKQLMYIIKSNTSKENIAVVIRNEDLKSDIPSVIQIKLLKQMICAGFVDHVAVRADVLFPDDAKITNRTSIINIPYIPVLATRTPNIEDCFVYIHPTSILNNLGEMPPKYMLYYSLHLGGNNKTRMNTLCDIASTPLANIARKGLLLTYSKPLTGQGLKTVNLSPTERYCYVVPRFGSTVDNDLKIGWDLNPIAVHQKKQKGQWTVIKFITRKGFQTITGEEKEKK


Experiments:
[1] = target: T1, ΔN-Dhr1-WT (Δ1 to 375-Dhr1); test: fluorescence polarisation; 1.25 nM 6-FAM-labelled Utp14-A′ peptide titrated with Dhr1 variants; 25 °C; 40 mM Tris–HCl pH 8.0, 40 mM KCl, 150 mM NaCl, 2 mM NaOAc, 2 mM DTT, 10 mM MgCl2, 4% glycerol, 0.05% Tween 20; saturation not reached, no Kd calculated; settings: both partners purified
ΔN-Dhr1-ΔSKTTD [2] = target: T2, ΔN-Dhr1-ΔSKTTD; test: as above; settings: both partners purified
[3] = target: T3, ΔN-Dhr1-YCK (RecA2 surface mutant); test: as above; settings: both partners purified
ΔN-Dhr1-ΔSKTTD [4] = target: T4, ΔN-Dhr1-ΔSKTTD; test: fluorescence polarization; no nucleotide; 10 mM Mg2+; 40 mM Tris-HCl pH 8.0, 40 mM KCl, 150 mM NaCl, 2 mM NaOAc, 2 mM DTT, 10 mM MgCl2, 4% glycerol, 0.05% Tween 20, 25 °C, 10 min; 1.25 nM RNA, 0.625 nM-20 µM protein; settings: protein: recombinant; tags: C-terminal His6 (pET21a); label: 5' 6-FAM; single strand
ΔN-Dhr1-WT = target: T5, ΔN-Dhr1-WT; test: as above; settings: protein: recombinant; tags: C-terminal His6 (pET21a); label: 5' 6-FAM; single strand

| binding result [1] | binding result (ΔN-Dhr1-ΔSKTTD [2]) | binding result [3] | Binder | Kd (ΔN-Dhr1-ΔSKTTD [4]) [nM] | Kd (ΔN-Dhr1-WT) [nM] |
| --- | --- | --- | --- | --- | --- |
| binds | binds | binds | 6FAM-VFMFKQQDVIAEAFAGDDVVAEFQEEKKRVIDDED (also called Utp14 fragment; source: synthetic peptide (Genscript)) [Utp14-A′ (UTP14 746–780), 6-FAM-labelled peptide] | – | – |
| – | – | – | UUUUUUUUUUUUUUUUUUUU (ssRNA) [U20] | 60 ± 10 | 300 ± 20 |
